The source of these data is patent US20060287501A1 (Pieris, published 2006).

Experiment [1] addresses T1, recombinant Nogo-A fragment NI-Fr4 (rat, UniProt Q9JK11 233-941).
T1 construct: Truncated rat Nogo-A with N-terminal Strep-tag II and C-terminal His6
T1 sequence: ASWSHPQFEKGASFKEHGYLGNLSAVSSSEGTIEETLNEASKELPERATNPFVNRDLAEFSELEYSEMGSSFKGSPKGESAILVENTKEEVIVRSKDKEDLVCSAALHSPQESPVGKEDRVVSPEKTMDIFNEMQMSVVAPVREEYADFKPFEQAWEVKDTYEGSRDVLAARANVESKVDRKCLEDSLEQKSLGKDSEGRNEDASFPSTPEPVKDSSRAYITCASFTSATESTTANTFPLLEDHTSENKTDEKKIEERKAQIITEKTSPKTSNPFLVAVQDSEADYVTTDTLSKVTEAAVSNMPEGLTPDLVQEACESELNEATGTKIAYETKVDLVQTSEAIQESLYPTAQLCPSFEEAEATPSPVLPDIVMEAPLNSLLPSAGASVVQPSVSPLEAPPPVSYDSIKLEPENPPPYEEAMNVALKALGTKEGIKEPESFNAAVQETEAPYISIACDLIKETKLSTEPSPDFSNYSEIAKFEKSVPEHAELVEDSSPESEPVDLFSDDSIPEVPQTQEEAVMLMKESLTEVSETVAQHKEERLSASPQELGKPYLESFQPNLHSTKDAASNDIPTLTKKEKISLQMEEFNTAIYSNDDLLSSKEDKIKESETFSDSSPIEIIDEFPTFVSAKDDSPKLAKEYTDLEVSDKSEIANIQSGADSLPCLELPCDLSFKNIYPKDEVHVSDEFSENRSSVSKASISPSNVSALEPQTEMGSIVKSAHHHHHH
Kind of experiment: SPR (Biacore X); NI-Fr4 on Ni/NTA chip via His6, Fab (pASK107, Strep-tag II) at 0.25-6.8 µM, equilibrium fit. The procedure: The thermodynamic affinity for the recombinant Nogo-A fragment NI-Fr4 was determined both for the II.1.8 mutant and for the wild-type IN-1 Fab fragment using the method of real time surface plasmon resonance (SPR) on a Biacore-X® system equipped with an Ni/NTA-derivatized sensor chip® (Biacore AB, Uppsala, Sweden). PBS containing 0.005% (v/v) surfactant P20 was used as continuous flow buffer as well as for dilution of proteins. Analysis was performed at 25° C. using a flow rate of 35 μl/min.
Then the Fab fragment (produced by means of the vector pASK107 and purified via the Strep-tag II; see Example 1)) was injected at a defined concentration (between 0.25 and 6.8 μM) for 2 minutes, followed by buffer flow for 4 minutes. The chip surface was regenerated using 70 μl 0.35 M EDTA, pH 8.0 in flow buffer prior to the next measurement. Each time-dependent binding isotherm of the Fab fragment was corrected for the background signal that was detected in the flow channel without NI-Fr4 using BIAevaluation software (Version 3.0). Resonance unit values for the bound Fab fragment at equilibrium for each applied concentration were then deduced and fitted (Voss and Skerra, supra) by non-linear least squares regression using an equation of the type y=a*x/(b+x). […]
(In general: SPR reads the build-up and loss of mass on a sensor chip optically.)

Experiment [2] concerns the target T2, mutant of NI-Fr2 devoid of Cys^574 and Cys^676 (rat, UniProt Q9JK11 233-940, labelled with digoxigenin in the colony screening assay).
T2 sequence: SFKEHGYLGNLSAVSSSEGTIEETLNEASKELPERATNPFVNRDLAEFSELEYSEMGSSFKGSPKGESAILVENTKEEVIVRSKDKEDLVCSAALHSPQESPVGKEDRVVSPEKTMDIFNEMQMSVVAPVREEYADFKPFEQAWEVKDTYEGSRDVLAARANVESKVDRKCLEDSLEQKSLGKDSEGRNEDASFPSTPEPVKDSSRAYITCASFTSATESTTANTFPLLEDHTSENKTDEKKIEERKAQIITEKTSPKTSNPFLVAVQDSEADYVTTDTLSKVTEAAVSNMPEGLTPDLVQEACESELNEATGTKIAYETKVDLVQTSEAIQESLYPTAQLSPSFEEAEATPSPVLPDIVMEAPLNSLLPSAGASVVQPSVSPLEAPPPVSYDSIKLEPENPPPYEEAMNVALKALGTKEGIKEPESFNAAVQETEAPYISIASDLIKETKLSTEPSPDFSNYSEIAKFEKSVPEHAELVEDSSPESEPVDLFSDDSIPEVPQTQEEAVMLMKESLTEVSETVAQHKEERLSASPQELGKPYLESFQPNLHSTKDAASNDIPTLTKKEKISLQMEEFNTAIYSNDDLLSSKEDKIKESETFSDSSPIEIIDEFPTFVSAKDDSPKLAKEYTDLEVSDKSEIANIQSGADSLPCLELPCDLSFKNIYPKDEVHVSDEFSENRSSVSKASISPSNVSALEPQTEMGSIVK
As to the kind of experiment: filter-sandwich colony screening assay; Fab-ABD (pASK106) captured on HSA membrane, labelled NI-Fr2 mutant (no Cys574, Cys676) at 30 µg/ml. The protocol: The first membrane, carrying tiny colonies of the transformed cells, was then placed onto the second (hydrophobic) membrane. The filter sandwich was incubated for 16 h at 22° C. During this period the mutated IN-1 Fab fragments became secreted—and partially released from the colonies by leakage from the bacterial periplasm—and finally immobilized on the lower membrane via complex formation between HSA and ABD.
The first membrane with the still viable colonies was transferred to a fresh LB/Amp agar plate and stored at 4° C. The second membrane was washed three times in PBS containing 0.1% (v/v) Tween 20 (PBS/T) and the immobilized Fab fragments, each in a spot 30 corresponding to the position of the original colony, were probed for antigen binding. To this end recombinant Nogo-A fragment NI-FR2 was labeled at a molar ratio of 5:1 with digoxigenin-3-O-methylcarbonyl-e-aminocaproic acid N-hydroxy-succinimide ester (Roche Diagnostics, Mannheim, Germany) and applied to the membrane for one hour at a concentration of 30 or 50 μg/ml in PBS/T. After washing three times with PBS/T the membrane was incubated for one hour with 0.75 u/ml anti-digoxigenin Fab fragment conjugated with alkaline phosphatase (Roche Diagnostics) in 10 ml PBS/T. The membrane was finally washed twice with PBS/T and twice with PBS and the signals were developed using standard chromogenic substrates as described (Schlehuber et al., supra). Colonies corresponding to signals with an intensity above average were identified, recovered from the first membrane, and propagated for further analysis of their recombinant gene product.
CDR-L3 forms a connecting loop between two neighboring beta-strands such that the positions L91 and L92 are in close spatial proximity with L96. […] This time the stringency of selection was raised by lowering the concentration of the recombinant antigen - a mutant of NI-Fr2 devoid of Cys⁵⁷⁴ and Cys⁶⁷⁶—from 50 μg/ml to 30 μg/ml.

The target of experiment [3] is T3, recombinant Nogo-A fragment NI-Fr2 (rat, UniProt Q9JK11 233-941, labelled with digoxigenin (molar ratio 5:1) in the colony screening assay).
T3 construct: Truncated rat Nogo-A with C-terminal Strep-tag, made in the E. coli periplasm; also called MI-Fr2; wild-type NI-Fr2
T3 sequence: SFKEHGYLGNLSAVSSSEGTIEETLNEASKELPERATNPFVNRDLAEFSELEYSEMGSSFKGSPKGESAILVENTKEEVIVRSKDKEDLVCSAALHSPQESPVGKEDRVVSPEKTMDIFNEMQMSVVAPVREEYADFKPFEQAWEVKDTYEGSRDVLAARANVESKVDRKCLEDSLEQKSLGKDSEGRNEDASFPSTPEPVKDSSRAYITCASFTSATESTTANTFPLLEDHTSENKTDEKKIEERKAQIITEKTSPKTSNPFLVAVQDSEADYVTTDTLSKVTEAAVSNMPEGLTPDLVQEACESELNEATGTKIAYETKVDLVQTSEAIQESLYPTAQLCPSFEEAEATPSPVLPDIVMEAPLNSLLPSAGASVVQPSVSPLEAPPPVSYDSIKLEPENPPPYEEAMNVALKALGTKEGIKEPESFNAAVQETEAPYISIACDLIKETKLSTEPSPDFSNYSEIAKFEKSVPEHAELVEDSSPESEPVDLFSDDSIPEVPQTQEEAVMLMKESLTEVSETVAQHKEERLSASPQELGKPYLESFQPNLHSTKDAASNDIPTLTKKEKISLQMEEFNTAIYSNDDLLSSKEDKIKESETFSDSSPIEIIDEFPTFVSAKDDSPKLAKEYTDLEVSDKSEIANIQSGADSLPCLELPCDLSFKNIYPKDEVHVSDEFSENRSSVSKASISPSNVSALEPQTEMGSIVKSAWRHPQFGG
Kind of experiment: ELISA, wells coated with NI-Fr2, bound Fab detected with anti-human Ckappa antibody-alkaline phosphatase, delta A405/delta t. The protocol:
Antigen-binding activity of the mutant Fab fragments was subsequently tested by ELISA using the recombinant NI-Fr2 for coating of the microtitre plate wells (FIG. 2).
ELISA was carried out in a 96 well microtitre plate (Becton Dickinson, Heidelberg, Germany) at ambient temperature with incubation steps of 1 h unless otherwise stated. Three washing steps with PBS/T were used after each incubation, and residual liquid was removed thoroughly. The wells were coated for 4 h with 50 μl of a solution of MI-Fr2 at concentrations between 180 and 200 μg/ml in PBS buffer and then blocked with 200 μl 3% (w/v) BSA, 0.5% (v/v) Tween 20 in PBS. After washing, 50 μl of the purified recombinant Fab fragment was applied at a dilution series in PBS/T. The wells were then incubated with 50 μl anti-human Cκ antibody conjugated with alkaline phosphatase (Sigma), diluted 1:1000 in PBS/T. Signals were finally developed in the presence of p-nitrophenyl phosphate (Voss and Skerra, (1997) Protein Eng., 10, 975-982). Enzymatic activity was measured at 25° C. as the change in absorbance at 405 nm per min with a SpectraMAX 250 instrument (Molecular Devices, Sunnyvale, Calif.). The data were corrected for background values determined in wells that were merely coated with BSA and fitted by non-linear least squares regression as described by Voss and Skerra, supra
A general note: An ELISA detects its analyte on a solid surface through an enzyme-linked reagent.

Experiment [4] has as its target T3, recombinant Nogo-A fragment NI-Fr2. As to the kind of experiment: ELISA; NI-Fr2 coated, purified Fab (pASK88, His6), anti-human Ckappa-AP detection.

B1: recombinant wild-type IN-1 Fab fragment (Fab, V domains shown)
VH: EVKLHESGPGLVRPGTSVKISCKASGYTFTNYWLGWVKQRPGHGLEWIGDIYPGGGYTNYNEKFKGKATLTADTSSSTAYMQLSSLTSEDSAVYFCARFYYGSSYWYFDVWGQGTTVTVSS
VL: DIELTQSPAIMAASVGETVTITCGASENIYGALNWYQRKQGKSPQLLIYGATNLADGMSSRFSGSGSGRQYSLKISSLHPDDVATYYCQNVLSTPRTFGAGTKLEIK
notes: Formats: pASK106 (ABD on light chain) in the colony screen, pASK88 (His6 on heavy chain) in ELISA, staining and neurite assay, pASK107 (Strep-tag II) in SPR; also called IN-1 wt; IN-1 (wild-type) Fab fragment
A word on the Kd: it is the free concentration of one partner at which half of the binding sites on the other are occupied at equilibrium, for simple one-to-one binding. For the molecule B1, the dissociation constant Kd in experiment [1] is 7.8 µM.

B2: II.1.1 Fab fragment (Fab, V domains shown)
VH: EVKLHESGPGLVRPGTSVKISCKASGYTFTNYWLGWVKQRPGHGLEWIGDIYPGGGYTNYNEKFKGKATLTADTSSSTAYMQLSSLTSEDSAVYFCARFYYGSSYWYFDVWGQGTTVTVSS
VL: DIELTQSPAIMAASVGETVTITCGASENIYGALNWYQRKQGKSPQLLIYGATNLADGMSSRFSGSGSGRQYSLKISSLHPDDVATYYCQNRKRVPVTFGAGTKLEIK
notes: Chimeric Fab, human IgG1/kappa constant domains
Consider B2, for which the binding result in experiment [2] is recorded as “binds”.

B3: I.2.6(L96V) Fab fragment (Fab, V domains shown)
VH: EVKLHESGPGLVRPGTSVKISCKASGYTFTNYWLGWVKQRPGHGLEWIGDIYPGGGYTNYNEKFKGKATLTADTSSSTAYMQLSSLTSEDSAVYFCARFYYGSSYWYFDVWGQGTTVTVSS
VL: DIELTQSPAIMAASVGETVTITCGASENIYGALNWYQRKQGKSPQLLIYGATNLADGMSSRFSGSGSGRQYSLKISSLHPDDVATYYCQNVLRVPVTFGAGTKLEIK
notes: Chimeric Fab, human IgG1/kappa constant domains; also called I.2.6(^L96Val) Fab fragment; replacement Cys^L96->Val
Take B3: the binding result in experiment [3] was “binds”.

B4: II.1.7 Fab fragment (Fab, V domains shown)
VH: EVKLHESGPGLVRPGTSVKISCKASGYTFTNYWLGWVKQRPGHGLEWIGDIYPGGGYTNYNEKFKGKATLTADTSSSTAYMQLSSLTSEDSAVYFCARFYYGSSYWYFDVWGQGTTVTVSS
VL: DIELTQSPAIMAASVGETVTITCGASENIYGALNWYQRKQGKSPQLLIYGATNLADGMSSRFSGSGSGRQYSLKISSLHPDDVATYYCQNLKRVPVTFGAGTKLEIK
notes: as for B2
In the case of B4, in experiment [2], the binding result is “binds”.

B5: II.1.3 Fab fragment (Fab, V domains shown)
VH: EVKLHESGPGLVRPGTSVKISCKASGYTFTNYWLGWVKQRPGHGLEWIGDIYPGGGYTNYNEKFKGKATLTADTSSSTAYMQLSSLTSEDSAVYFCARFYYGSSYWYFDVWGQGTTVTVSS
VL: DIELTQSPAIMAASVGETVTITCGASENIYGALNWYQRKQGKSPQLLIYGATNLADGMSSRFSGSGSGRQYSLKISSLHPDDVATYYCQNMKRVPVTFGAGTKLEIK
notes: as for B2
As to B5, in experiment [2], the binding result was “binds”.

B6: I.1.4 Fab fragment (IN-1 mutant) (Fab, V domains shown)
VH: EVKLHESGPGLVRPGTSVKISCKASGYTFTNYWLGWVKQRPGHGLEWIGDIYPGGGYTNYNEKFKGKATLTADTSSSTAYMQLSSLTSEDSAVYFCARFYYGSSYWYFDVWGQGTTVTVSS
VL: DIELTQSPAIMAASVGETVTITCGASENIYGALNWYQRKQGKSPQLLIYGATNLADGMSSRFSGSGSGRQYSLKISSLHPDDVATYYCQNVLPVPWTFGAGTKLEIK
notes: as for B2
Turning to B6, in experiment [4], the binding result was “binds”.
